Results: patent US20210024654A1 (AMPHIVENA THERAPEUTICS, published 2021)

B1: CD33/CD3 tandem diabody 20 (bispecific antibody)
chain: DIQMTQSPSSLSASVGDRVTITCRSSTGAVTTSNYANWVQQKPGKAPKGLIGGTNKRAPGVPSRFSGSLIGTDFTLTISSLQPEDFATYYCALWYSNLWVFGQGTKVEIKGGSGGSQVQLVQSGAEVKKPGASVKVSCKASGYTFTSYYMHWVRQAPGQGLEWMGIINPSGGSTSYAQKFQGRVTMTRDTSTSTVYMELSSLRSEDTAVYYCARDVVPAAIDYYGMDVWGQGTTVTVSSGGSGQSVLTQPPSASGTPGQRVTISCSGSSSNIGSNTVNWYQQLPGTAPKLLIYSDNQRPSGVPDRFSGSKSGSSASLAISGLQSDDEADYYCATWDDSLNGAVFGGGTKLTVLGGSGGSEVQLVESGGGLVQPGGSLRLSCAASGFTFSTYAMNWVRQAPGKGLEWVGRIRSKYNNYATYYADSVKDRFTISRDDSKNSLYLQMNSLKTEDTAVYYCARHGNFGNSYVSWFAYWGQGTLVTVSS
B2: CD33/CD3 tandem diabody 19 (bispecific antibody)
chain: DIQMTQSPSSLSASVGDRVTITCRSSTGAVTTSNYANWVQQKPGKAPKALIGGTNKRAPGVPSRFSGSLIGDKATLTISSLQPEDFATYYCALWYSNLWVFGQGTKVEIKGGSGGSQVQLVQSGAEVKKPGASVKVSCKASGYTFTSYYMHWVRQAPGQGLEWMGIINPSGGSTSYAQKFQGRVTMTRDTSTSTVYMELSSLRSEDTAVYYCARDVVPAAIDYYGMDVWGQGTTVTVSSGGSGQSVLTQPPSASGTPGQRVTISCSGSSSNIGSNTVNWYQQLPGTAPKLLIYSDNQRPSGVPDRFSGSKSGSSASLAISGLQSDDEADYYCATWDDSLNGAVFGGGTKLTVLGGSGGSEVQLVESGGGLVQPGGSLRLSCAASGFTFSTYAMNWVRQAPGKGLEWVGRIRSKYNNYATYYADSVKDRFTISRDDSKNSLYLQMNSLKTEDTAVYYCARHGNFGNSYVSYFAYWGQGTLVTVSSAAAGSHHHHHH

Key:
[1] = target: cynomolgus CD33 (cynomolgus); assay: flow cytometry KDs on CHO cells, cyno CD33 / human CD33
human CD3 = human CD3 (human, UniProt P07766 23-207); assay: cell-based or functional assay
human CD3, sequence (P07766 23-207): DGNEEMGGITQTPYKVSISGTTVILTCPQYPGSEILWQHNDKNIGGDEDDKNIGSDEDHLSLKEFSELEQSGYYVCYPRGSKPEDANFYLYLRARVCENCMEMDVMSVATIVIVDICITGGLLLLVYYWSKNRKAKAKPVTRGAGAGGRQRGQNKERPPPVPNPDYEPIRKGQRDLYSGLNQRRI

Row | Binder | KD ratio CynoCD33/huCD33 [1] | T cell Proliferation in PBMC EC50 (human CD3) [nM]
1 | B1 | 33.8 | 0.038
2 | B2 | 37.3 | –
